According to patent US20190375846A1 (ULTRAHUMAN ONE, published 2019):

Columns and labels:
[1] = target: T1, human GITR at the cell surface (human, UniProt Q9Y5U5 26-241); experiment: cell-based or functional assay
T1 sequence (looked up): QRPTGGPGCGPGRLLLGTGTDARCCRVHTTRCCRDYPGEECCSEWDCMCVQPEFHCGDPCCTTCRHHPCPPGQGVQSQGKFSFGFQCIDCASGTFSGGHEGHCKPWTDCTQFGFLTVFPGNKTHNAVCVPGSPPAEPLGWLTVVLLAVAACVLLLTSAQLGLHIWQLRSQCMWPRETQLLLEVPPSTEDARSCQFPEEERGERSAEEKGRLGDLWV

hDR6-Fc = target: T2, hDR6-Fc (human, UniProt O75509); experiment: direct ELISA on coated protein, IgG at 10 µg/ml, OD 450 nm
T2 construct: recombinant Fc fusion; Member of the panel m8
T2 sequence (fusion chain, looked up): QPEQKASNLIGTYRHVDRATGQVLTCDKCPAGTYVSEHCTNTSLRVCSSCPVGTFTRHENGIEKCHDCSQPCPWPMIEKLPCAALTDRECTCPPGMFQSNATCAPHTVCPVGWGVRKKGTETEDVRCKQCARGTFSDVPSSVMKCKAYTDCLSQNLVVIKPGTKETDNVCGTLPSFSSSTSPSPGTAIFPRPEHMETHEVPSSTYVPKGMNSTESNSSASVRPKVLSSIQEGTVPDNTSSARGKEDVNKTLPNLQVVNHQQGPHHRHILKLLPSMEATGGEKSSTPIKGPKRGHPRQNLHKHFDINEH
Experimental: (§1) Off-target homologue binding risk for mVH/mVL (FIG. 8A), VH3/VL2 (FIG. 8B) and lead engineered IgG clones G-G10 (FIG. 8C), I-C2 (FIG. 8D) and D-A6 (FIG. 8E) was examined by direct ELISA on GITR-Fc orthologs and a panel of 13 human TNFRSF and immunoglobulin superfamily proteins (as labelled on each X-axis). Binding to human, cyno and murine GITR-Fcs (h/c/mGITR-Fc) was performed at an IgG concentration of 1 μg/ml. Binding to all other proteins was performed at an IgG concentration of 10 μg/ml.
(§2) Anti-GITR antibodies were tested for polyreactivity by ELISA. Purified, recombinant, target and non-target antigens were coated in 96-well Nunc maxisorp plates at 100 ng per well in carbonate buffer, at 4° C. overnight. Plates were then washed 3× with PBS, blocked with 1% BSA in PBS, then washed 3× with PBS-Tween20. A dilution series of primary antibodies was then applied, plates were washed 3× with PBS-Tween20 followed by application of goat anti-human kappa chain-HRP 1:4,000 secondary antibody. Wells were then washed 3× with PBS-Tween20 and 2× with PBS, 100 μl TMB peroxidase substrate was added per well, the was reaction stopped by adding 100 μl 2M H₂SO₄ and absorbances were read at 450 nm. Anti-GITR antibodies were also tested for binding specificity by flow cytometry. HuT78 cells were activated by incubation with anti-CD3/anti-CD28 beads for 3 days. Naïve cells were incubated in media alone. At the end of the incubation the cells were harvested and the beads removed from the activated cells using a magnet. Cells were incubated with viability dye and then stained with anti-GITR antibodies at 4° C. […] Binding of VH1/VI1 and D-A6 IgG1 proteins were detected by subsequent incubation with a PE labelled goat anti-human IgG. Cells were fixed with 4% PFA before being stored in PBS at 4° C. overnight. Cells were analysed the next day using a BD Fortessa flow cytometer running Diva software. Analysis was performed using FlowJo software.

hEpCAM-Fc = target: T3, hEpCAM-Fc (human, UniProt P16422); experiment: as above
T3 construct: recombinant Fc fusion; Member of the panel m8
T3 sequence (fusion chain, looked up): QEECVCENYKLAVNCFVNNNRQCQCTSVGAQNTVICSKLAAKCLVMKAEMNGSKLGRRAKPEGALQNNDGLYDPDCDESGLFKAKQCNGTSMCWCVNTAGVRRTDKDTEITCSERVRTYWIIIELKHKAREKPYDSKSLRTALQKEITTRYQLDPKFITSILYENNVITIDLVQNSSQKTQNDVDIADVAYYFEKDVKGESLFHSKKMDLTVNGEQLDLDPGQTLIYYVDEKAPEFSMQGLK
Experimental: as §1, §2

hCD4 = target: T4, hCD4 (human, UniProt P01730); experiment: as above
T4 construct: purified recombinant protein; Member of the panel m8
Experimental: as §1, §2

h4-1BB-Fc = target: T5, h4-1BB-Fc; experiment: as above
T5 construct: Member of the panel m8; not shown: Fc part and any linker
Experimental: as §1, §2

[2] = target: T1, human GITR at the cell surface; experiment: flow cytometry, human GITR-transfected murine blastoma cells, 10,000-13.7 ng/ml
Experimental: Concentration-dependent binding to GITR at the cell surface was analysed using flow cytometry.

human GITR-Fc = target: T6, human GITR-Fc (human, UniProt Q9Y5U5 26-161); experiment: direct titration ELISA, coated human GITR-Fc, IgG1
T6 construct: Recombinant GITR-Fc; also called hGITR-Fc; hGITR; not shown: Fc part
T6 sequence (looked up): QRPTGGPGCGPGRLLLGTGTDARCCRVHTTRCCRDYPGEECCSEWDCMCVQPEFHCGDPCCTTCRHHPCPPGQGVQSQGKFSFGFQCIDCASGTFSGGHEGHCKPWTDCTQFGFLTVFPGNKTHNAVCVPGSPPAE
Experimental: To coat Greiner Bio-One High bind ELISA plates, target proteins were diluted to 1 μg/ml in carbonate buffer and added at 100 μl per well, at 4° C., o/n. Coated plates were washed 3× with PBS pH7.4, blocked with 1% BSA in PBS (380 μl/well) for 1 hr at RT, then washed 3× with PBS-Tween 20 (PBST). GITR antibodies (100 μl/well; diluted in PBST) were then added and then incubated 1 hr at RT. Plates were then washed 3× with PBST and goat anti-human kappa chain-HRP added (100 μl/well) at RT, for 1 hr. Plates were then washed 3× with PBST and twice with PBS before the addition of 100 μl TMB per well. Reactions were stopped by adding 100 μl 2M H₂SO₄/well and OD was read on a plate reader at 450 nm. IgG binding analysis via ELISA on negatively charged biomolecular surfaces were performed as previously described (see Mouquet et al., 2010, Nature 467: 591-595).
Retention of GITR-binding function in the purified IgG1 proteins was first examined by titration in direct binding ELISA against human GITR-Fc. […] Importantly, the >100-fold loss of binding function in the VH2 IgG family further illustrated that the HCDR1 could not be fully germ-lined a priori to match the native sequence of the human germline HCDR1 found in the framework used for grafting (IGHV3-7).

T5 sequence (chain, as listed by the source limits assumed): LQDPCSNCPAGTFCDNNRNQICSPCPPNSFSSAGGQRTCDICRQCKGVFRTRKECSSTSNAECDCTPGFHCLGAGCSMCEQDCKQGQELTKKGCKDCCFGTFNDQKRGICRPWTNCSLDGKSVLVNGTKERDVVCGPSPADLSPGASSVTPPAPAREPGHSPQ

Binder | EC50 of FcγRIIIa activation, Promega ADCC reporter assay, CHO-K1 target cells expressing human GITR [1] [nM] | potency against VH1/VL1 IgG1, ADCC reporter assay on human GITR CHO-K1 cells [1] [fold] | binding result (hDR6-Fc) | binding result (hEpCAM-Fc) | binding result (hCD4) | binding result (h4-1BB-Fc) | concentration at maximum MFI [2] [ng/mL] | EC50 (human GITR-Fc) [ng/mL]
D-A6 IgG1 (antibody, V domains shown, Human IgG1) VH: EVQLVESGGGLVQPGGSLRLSCAASGFSLSTSGYGVGWVRQAPGKGLEWLAHIWWDDDKYYVDSVKGRFTISRDNAKNSLYLQMNSLRAEDTAVYYCARTRQYFPFAYWGQGTLVTVSS VL: EIVLTQSPATLSLSPGERATLSCRASQSVGSNLAWYQQKPGQAPRLLIYSASYRYTGIPARFSGSGSGTDFTLTISSLEPEDFAVYYCQQYSTDPLTFGGGTKVEIK | 15.4 | 2 | no binding (tested: 10 µg/ml) | no binding (tested: 10 µg/ml) | no binding (tested: 10 µg/ml) | no binding (tested: 10 µg/ml) | ~1110 | 
I-C2 IgG1 (antibody, V domains shown, Human IgG1) VH: EVQLVESGGGLVQPGGSLRLSCAASGFSLSTSGYGVGWVRQAPGKGLEWLAHIWWDDDKYYVDSVKGRFTISRDNAKNSLYLQMNSLRAEDTAVYYCARTRLYFPFAYWGQGTLVTVSS VL: EIVLTQSPATLSLSPGERATLSCRASQNVGSNLAWYQQKPGQAPRLLIYSASNRYSGIPARFSGSGSGTDFTLTISSLEPEDFAVYYCQQYSTDPLTFGGGTKVEIK |  |  | no binding (tested: 10 µg/ml) | no binding (tested: 10 µg/ml) | no binding (tested: 10 µg/ml) | no binding (tested: 10 µg/ml) | ~1110 | 
G-G10 IgG1 (antibody, V domains shown, Human IgG1) VH: EVQLVESGGGLVQPGGSLRLSCAASGFSLSTFGYGVGWVRQAPGKGLEWLAHIWWDDDKYYVDSVKGRFTISRDNAKNSLYLQMNSLRAEDTAVYYCARTRQYFPFAYWGQGTLVTVSS VL: EIVLTQSPATLSLSPGERATLSCRASQSVGTNLAWYQQKPGQAPRLLIYYASYRYTGIPARFSGSGSGTDFTLTISSLEPEDFAVYYCQQYSNDPLTFGGGTKVEIK |  |  | no binding (tested: 10 µg/ml) | no binding (tested: 10 µg/ml) | no binding (tested: 10 µg/ml) | no binding (tested: 10 µg/ml) | ~1110 | 
VH3/VL2 IgG1 (antibody, V domains shown, Human IgG1; template of the mutagenesis library; also called G-VH3/VL2; VH3 family) VH: EVQLVESGGGLVQPGGSLRLSCAASGFSLSTSGMGVGWVRQAPGKGLEWLAHIWWDDDKYYVDSVKGRFTISRDNAKNSLYLQMNSLRAEDTAVYYCARTRRYFPFAYWGQGTLVTVSS VL: EIVLTQSPATLSLSPGERATLSCRASQNVGTNVAWYQQKPGQAPRLLIYSASYRYSGIPARFSGSGSGTDFTLTISSLEPEDFAVYYCQQYNTDPLTFGGGTKVEIK |  |  | no binding (tested: 10 µg/ml) | no binding (tested: 10 µg/ml) | no binding (tested: 10 µg/ml) | no binding (tested: 10 µg/ml) | ~1110 | 
chimeric anti-GITR IgG1 mVH/mVL (6C8 murine v-domains) (antibody, V domains shown, Full-length human IgG1, kappa; also called GITR-mVH/mVL; chimeric IgG) VH: QVTLKESGPGILKPSQTLSLTCSFSGFSLSTSGMGVGWIRQPSGKGLEWLAHIWWDDDKYYNPSLKSQLTISKDTSRNQVFLKITSVDTADAATYYCARTRRYFPFAYWGQGTLVTVSS VL: DIVMTQSQKFMSTSVGDRVSVTCKASQNVGTNVAWYQQKPGQSPKALIYSASYRYSGVPDRFTGSGSGTDFTLTINNVHSEDLAEYFCQQYNTDPLTFGAGTKLEIK |  |  | no binding (tested: 10 µg/ml) | no binding (tested: 10 µg/ml) | no binding (tested: 10 µg/ml) | no binding (tested: 10 µg/ml) | ~1110 | ≥ 4
